Article PMC7617670, “Activity Regulation of a Glutamine Amidotransferase Bienzyme Complex by Substrate-Induced Subunit Interface Expansion” (ACS catalysis, 2025)

What was measured:
Assay in all cases: ITC; 250 μM PabB titrated into 25 μM PabA in the cell; 25 °C; 50 mM Tris/HCl pH 7.5, 50 mM KCl, 5 mM MgCl2; without Cho and Gln; one set of sites
Conditions in all cases: both partners purified
[1] = molecular target: T1, PabB variant bE119R (Escherichia coli, UniProt P05041 1-453, bE119R)
T1 construct: PabB, synthase subunit of ADCS, E. coli; construct as m2 with one exchange; Made by QuikChange mutagenesis from the construct of m2; source: E. coli BL21-Gold (DE3), purified (Ni-IMAC, preparative gel filtration)
T1 sequence: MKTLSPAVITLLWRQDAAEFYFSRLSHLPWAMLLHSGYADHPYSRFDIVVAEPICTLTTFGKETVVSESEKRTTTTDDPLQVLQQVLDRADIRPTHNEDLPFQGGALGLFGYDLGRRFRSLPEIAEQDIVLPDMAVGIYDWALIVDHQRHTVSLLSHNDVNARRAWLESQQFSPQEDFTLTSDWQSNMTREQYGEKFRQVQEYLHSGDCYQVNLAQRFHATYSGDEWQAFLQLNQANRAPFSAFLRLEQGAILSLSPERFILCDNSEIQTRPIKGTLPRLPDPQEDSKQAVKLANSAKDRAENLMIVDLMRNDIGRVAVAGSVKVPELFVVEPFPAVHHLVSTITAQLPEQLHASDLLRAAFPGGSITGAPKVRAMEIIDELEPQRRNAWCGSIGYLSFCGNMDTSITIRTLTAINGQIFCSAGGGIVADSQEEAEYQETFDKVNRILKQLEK

[2] = molecular target: T2, PabB variant bG207P (Escherichia coli, UniProt P05041 1-453, bG207P)
T2 construct: PabB, synthase subunit of ADCS, E. coli; construct as m2 with one exchange; Made by QuikChange mutagenesis from the construct of m2; source: E. coli BL21-Gold (DE3), purified (Ni-IMAC, preparative gel filtration)
T2 sequence: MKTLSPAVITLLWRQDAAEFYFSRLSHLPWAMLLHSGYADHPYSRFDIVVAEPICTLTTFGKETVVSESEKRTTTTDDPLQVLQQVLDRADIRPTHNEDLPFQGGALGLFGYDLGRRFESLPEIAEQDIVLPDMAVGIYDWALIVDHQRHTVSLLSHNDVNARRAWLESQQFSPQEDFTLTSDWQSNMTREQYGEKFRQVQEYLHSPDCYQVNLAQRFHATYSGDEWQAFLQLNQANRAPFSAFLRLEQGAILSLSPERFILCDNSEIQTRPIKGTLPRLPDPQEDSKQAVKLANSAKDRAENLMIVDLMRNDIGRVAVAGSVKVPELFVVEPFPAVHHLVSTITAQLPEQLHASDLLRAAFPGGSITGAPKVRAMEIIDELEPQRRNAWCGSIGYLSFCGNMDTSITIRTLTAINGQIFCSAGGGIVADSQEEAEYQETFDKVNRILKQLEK

[3] = molecular target: T3, PabB variant bY210A (Escherichia coli, UniProt P05041 1-453, bY210A)
T3 construct: PabB, synthase subunit of ADCS, E. coli; construct as m2 with one exchange; Made by QuikChange mutagenesis from the construct of m2; source: E. coli BL21-Gold (DE3), purified (Ni-IMAC, preparative gel filtration)
T3 sequence: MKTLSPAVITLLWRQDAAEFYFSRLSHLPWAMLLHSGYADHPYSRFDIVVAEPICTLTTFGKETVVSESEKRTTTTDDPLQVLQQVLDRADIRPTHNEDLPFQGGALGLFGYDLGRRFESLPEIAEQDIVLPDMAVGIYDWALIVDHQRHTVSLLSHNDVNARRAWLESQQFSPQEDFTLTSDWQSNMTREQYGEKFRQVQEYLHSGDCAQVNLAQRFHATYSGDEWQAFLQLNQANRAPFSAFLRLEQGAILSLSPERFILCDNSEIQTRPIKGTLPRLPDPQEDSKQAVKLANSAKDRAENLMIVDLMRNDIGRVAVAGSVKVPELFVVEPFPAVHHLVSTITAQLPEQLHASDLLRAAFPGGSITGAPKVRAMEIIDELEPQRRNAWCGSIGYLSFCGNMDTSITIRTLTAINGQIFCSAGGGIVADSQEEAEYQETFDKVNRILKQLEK

[4] = molecular target: T4, PabB variant bY210F (Escherichia coli, UniProt P05041 1-453, bY210F)
T4 construct: PabB, synthase subunit of ADCS, E. coli; construct as m2 with one exchange; Made by QuikChange mutagenesis from the construct of m2; source: E. coli BL21-Gold (DE3), purified (Ni-IMAC, preparative gel filtration)
T4 sequence: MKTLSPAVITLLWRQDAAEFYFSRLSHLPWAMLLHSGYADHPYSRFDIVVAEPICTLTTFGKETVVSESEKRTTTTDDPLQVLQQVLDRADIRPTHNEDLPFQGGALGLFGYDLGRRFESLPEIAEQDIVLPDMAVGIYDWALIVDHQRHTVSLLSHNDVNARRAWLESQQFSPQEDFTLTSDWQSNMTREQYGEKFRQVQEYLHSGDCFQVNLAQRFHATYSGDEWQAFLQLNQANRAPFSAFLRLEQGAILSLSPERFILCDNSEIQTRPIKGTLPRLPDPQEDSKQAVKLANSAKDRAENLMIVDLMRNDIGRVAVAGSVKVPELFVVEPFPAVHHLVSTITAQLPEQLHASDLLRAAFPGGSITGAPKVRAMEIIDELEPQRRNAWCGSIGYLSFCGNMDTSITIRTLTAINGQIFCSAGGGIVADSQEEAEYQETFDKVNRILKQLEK

[5] = molecular target: T5, PabB variant bE119D (Escherichia coli, UniProt P05041 1-453, bE119D)
T5 construct: PabB, synthase subunit of ADCS, E. coli; construct as m2 with one exchange; Made by QuikChange mutagenesis from the construct of m2; source: E. coli BL21-Gold (DE3), purified (Ni-IMAC, preparative gel filtration)
T5 sequence: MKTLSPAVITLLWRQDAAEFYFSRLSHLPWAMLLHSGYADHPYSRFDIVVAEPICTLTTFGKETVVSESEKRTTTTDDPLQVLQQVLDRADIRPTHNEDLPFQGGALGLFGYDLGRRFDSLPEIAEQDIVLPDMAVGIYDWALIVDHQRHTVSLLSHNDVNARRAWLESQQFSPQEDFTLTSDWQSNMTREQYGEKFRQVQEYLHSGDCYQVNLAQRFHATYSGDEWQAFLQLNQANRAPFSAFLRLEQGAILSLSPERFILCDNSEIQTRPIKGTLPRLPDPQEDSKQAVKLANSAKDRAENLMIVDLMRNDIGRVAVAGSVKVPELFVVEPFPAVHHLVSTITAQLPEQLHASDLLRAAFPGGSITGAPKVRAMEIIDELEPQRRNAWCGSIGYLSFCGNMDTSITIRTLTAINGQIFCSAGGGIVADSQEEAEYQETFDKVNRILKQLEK

Kd [1]: 540 nM | Kd [2]: 1700 nM | Kd [3]: 5500 nM | Kd [4]: 530 nM | Kd [5]: 840 nM
B1: PabA, glutaminase subunit of aminodeoxychorismate synthase (ADCS) from Escherichia coli, wild type (enzyme)
chain: MILLIDNYDSFTWNLYQYFCELGADVLVKRNDALTLADIDALKPQKIVISPGPCTPDEAGISLDVIRHYAGRLPILGVCLGHQAMAQAFGGKVVRAAKVMHGKTSPITHNGEGVFRGLANPLTVTRYHSLVVEPDSLPACFDVTAWSETREIMGIRHRQWDLEGVQFHPESILSEQGHQLLANFLHR
notes: PabA, class I glutaminase subunit of ADCS, E. coli; the gene was cloned into pET28a; Form used for SEC, ITC and kinetics; TEV cleavage is told only of the proteins used for crystallization; The G5H-Tag stands between the TEV site and the start methionine of PabA; also called wt PabA; ADCS glutaminase subunit; source: E. coli BL21-Gold (DE3), purified (Ni-IMAC, preparative gel filtration)
